{"source": "patent US20130209454A1", "about": "(CALIFORNIA INSTITUTE OF TECHNOLOGY, published 2013)", "binders": {"B1": {"name": "NIH45-46 IgG (antibody, V domains shown)", "VH": "QVRLSQSGGQMKKPGESMRLSCRASGYEFLNCPINWIRLAPGRRPEWMGWLKPRGGAVNYARKFQGRVTMTRDVYSDTAFLELRSLTSDDTAVYFCTRGKYCTARDYYNWDFEHWGRGAPVTVSS", "VL": "EIVLTQSPATLSLSPGETAIISCRTSQSGSLAWYQQRPGQAPRLVIYSGSTRAAGIPDRFSGSRWGADYNLSISNLESGDFGVYYCQQYEFFGQGTKVQVDI"}, "B2": {"name": "NIH45-46 IgG (antibody, V domains shown)", "VH": "B1 VH", "VL": "B1 VL"}}, "test_in_all_cases": "cell-based or functional assay", "key": {"[1]": {"target": "HIV-1 Env of strain 3016.v5.c45 (HIV-1)"}, "[2]": {"target": "HIV-1 Env of strain C2101.c01 (HIV-1)"}, "[3]": {"target": "HIV-1 Env of strain CAP45.2.00.G3 (HIV-1)"}, "[4]": {"target": "HIV-1 Env of strain CAP210.2.00.E8 (HIV-1)"}, "[5]": {"target": "HIV-1 Env of strain Du172.17 (HIV-1)"}, "[6]": {"target": "HIV-1 Env of strain TRO.11 (HIV-1)"}, "[7]": {"target": "HIV-1 Env of strain AC10.0.29 (HIV-1)"}, "[8]": {"target": "HIV-1 Env of strain SC422661.8 (HIV-1)"}, "[9]": {"target": "HIV-1 Env of strain WEAU_d15_410_787 (HIV-1)"}, "[10]": {"target": "HIV-1 Env of strain 6545.v4.cl (HIV-1)"}, "[11]": {"target": "HIV-1 Env of strain 6540.v4.cl (HIV-1)"}, "[12]": {"target": "HIV-1 Env of strain 3016.v5.c45 (HIV-1)", "remark": "listed apart in the source"}, "[13]": {"target": "HIV-1 Env of strain CNE20 (HIV-1)"}, "[14]": {"target": "HIV-1 Env of strain CNE21 (HIV-1)"}, "[15]": {"target": "HIV-1 Env of strain HIV-16845-2.22 (HIV-1)"}, "[16]": {"target": "HIV-1 Env of strain ZM233M.PB6 (HIV-1)"}, "[17]": {"target": "HIV-1 Env of strain ZM135M.PL10a (HIV-1)"}, "[18]": {"target": "HIV-1 Env of strain CNE58 (HIV-1)"}, "[19]": {"target": "HIV-1 Env of strain ZM53M.PB12 (HIV-1)"}, "[20]": {"target": "HIV-1 Env of strain 1056_10_TA11_1826 (HIV-1)"}, "[21]": {"target": "HIV-1 Env of strain Q461.e2 (HIV-1)"}, "[22]": {"target": "HIV-1 Env of strain Ce0682_E4 (HIV-1)"}, "[23]": {"target": "HIV-1 Env of strain 6480.v4.c25 (HIV-1)"}, "[24]": {"target": "HIV-1 strain T250-4 envelope (gp120) (HIV-1)"}, "[25]": {"target": "HIV-1 strain CNE20 envelope (gp120) (HIV-1)"}, "[26]": {"target": "HIV-1 strain 211-9 envelope (gp120) (HIV-1)"}, "[27]": {"target": "HIV-1 strain 620345.c01 envelope (gp120) (HIV-1)"}, "[28]": {"target": "HIV-1 strain 89-F1_2_25 envelope (gp120) (HIV-1)"}, "[29]": {"target": "HIV-1 strain 6540.v4.c1 envelope (gp120) (HIV-1)"}, "[30]": {"target": "HIV-1 strain CNE21 envelope (gp120) (HIV-1)"}, "[31]": {"target": "HIV-1 strain THRO4156.18 envelope (gp120) (HIV-1)"}, "[32]": {"target": "HIV-1 strain T257-31 envelope (gp120) (HIV-1)"}, "[33]": {"target": "HIV-1 strain ZM197M.PB7 envelope (gp120) (HIV-1)"}, "[34]": {"target": "HIV-1 strain ZM109F.PB4 envelope (gp120) (HIV-1)"}, "[35]": {"target": "HIV-1 strain Ce2010_F5 envelope (gp120) (HIV-1)"}, "[36]": {"target": "HIV-1 strain 0330.v4.c3 envelope (gp120) (HIV-1)"}, "[37]": {"target": "HIV-1 strain Ce2060_G9 envelope (gp120) (HIV-1)"}, "[38]": {"target": "HIV-1 strain Ce0682_E4 envelope (gp120) (HIV-1)"}, "[39]": {"target": "HIV-1 strain Q259.d2.17 envelope (gp120) (HIV-1)"}, "[40]": {"target": "HIV-1 strain TRJO4551.58 envelope (gp120) (HIV-1)"}, "[41]": {"target": "HIV-1 strain Du156.12 envelope (gp120) (HIV-1)"}, "[42]": {"target": "HIV-1 strain RHPA4259.7 envelope (gp120) (HIV-1)"}, "[43]": {"target": "HIV-1 strain CNE53 envelope (gp120) (HIV-1)"}}, "note": "Read-outs that look alike come from different tables or passages of the source."}
{"binder": "B1", "values": [{"measurement": "neutralization IC50", "setting": "[1]", "value": "> 30", "unit": "µg/mL"}, {"measurement": "neutralization IC50", "setting": "[2]", "value": 12.8, "unit": "µg/mL"}, {"measurement": "neutralization IC50", "setting": "[3]", "value": "> 50", "unit": "µg/mL"}, {"measurement": "neutralization IC50", "setting": "[4]", "value": "> 50", "unit": "µg/mL"}, {"measurement": "neutralization IC50", "setting": "[5]", "value": "> 50", "unit": "µg/mL"}, {"measurement": "neutralization IC50", "setting": "[6]", "value": 1, "unit": "µg/mL"}, {"measurement": "neutralization IC50", "setting": "[7]", "value": 0.9, "unit": "µg/mL"}, {"measurement": "neutralization IC50", "setting": "[8]", "value": 0.06, "unit": "µg/mL"}, {"measurement": "neutralization IC50", "setting": "[9]", "value": 0.005, "unit": "µg/mL"}, {"measurement": "neutralization IC50", "setting": "[10]", "value": "> 50", "unit": "µg/mL"}, {"measurement": "neutralization IC50", "setting": "[11]", "value": "> 50", "unit": "µg/mL"}, {"measurement": "neutralization IC50", "setting": "[12]", "value": "> 50", "unit": "µg/mL"}, {"measurement": "neutralization IC50", "setting": "[13]", "value": 7.83, "unit": "µg/mL"}, {"measurement": "neutralization IC50", "setting": "[14]", "value": 6.01, "unit": "µg/mL"}, {"measurement": "neutralization IC50", "setting": "[15]", "value": 5, "unit": "µg/mL"}, {"measurement": "neutralization IC50", "setting": "[16]", "value": 2.5, "unit": "µg/mL"}, {"measurement": "neutralization IC50", "setting": "[17]", "value": 0.59, "unit": "µg/mL"}, {"measurement": "neutralization IC50", "setting": "[18]", "value": 0.43, "unit": "µg/mL"}, {"measurement": "neutralization IC50", "setting": "[19]", "value": 0.175, "unit": "µg/mL"}, {"measurement": "neutralization IC50", "setting": "[20]", "value": 0.094, "unit": "µg/mL"}, {"measurement": "neutralization IC50", "setting": "[21]", "value": 0.076, "unit": "µg/mL"}, {"measurement": "neutralization IC50", "setting": "[22]", "value": 0.054, "unit": "µg/mL"}, {"measurement": "neutralization IC50", "setting": "[23]", "value": 0.032, "unit": "µg/mL"}]}
{"binder": "B2", "values": [{"measurement": "neutralization IC80", "setting": "[24]", "value": "> 50", "unit": "µg/mL"}, {"measurement": "neutralization IC80", "setting": "[25]", "value": "> 50", "unit": "µg/mL"}, {"measurement": "neutralization IC80", "setting": "[26]", "value": "> 50", "unit": "µg/mL"}, {"measurement": "neutralization IC80", "setting": "[27]", "value": "> 50", "unit": "µg/mL"}, {"measurement": "neutralization IC80", "setting": "[28]", "value": "> 50", "unit": "µg/mL"}, {"measurement": "neutralization IC80", "setting": "[29]", "value": "> 50", "unit": "µg/mL"}, {"measurement": "neutralization IC80", "setting": "[30]", "value": 38.1, "unit": "µg/mL"}, {"measurement": "neutralization IC80", "setting": "[31]", "value": 8.22, "unit": "µg/mL"}, {"measurement": "neutralization IC80", "setting": "[32]", "value": 1.38, "unit": "µg/mL"}, {"measurement": "neutralization IC80", "setting": "[33]", "value": 0.55, "unit": "µg/mL"}, {"measurement": "neutralization IC80", "setting": "[34]", "value": 0.437, "unit": "µg/mL"}, {"measurement": "neutralization IC80", "setting": "[35]", "value": 0.357, "unit": "µg/mL"}, {"measurement": "neutralization IC80", "setting": "[36]", "value": 0.3, "unit": "µg/mL"}, {"measurement": "neutralization IC80", "setting": "[37]", "value": 0.29, "unit": "µg/mL"}, {"measurement": "neutralization IC80", "setting": "[38]", "value": 0.155, "unit": "µg/mL"}, {"measurement": "neutralization IC80", "setting": "[39]", "value": 0.154, "unit": "µg/mL"}, {"measurement": "neutralization IC80", "setting": "[40]", "value": 0.13, "unit": "µg/mL"}, {"measurement": "neutralization IC80", "setting": "[41]", "value": 0.054, "unit": "µg/mL"}, {"measurement": "neutralization IC80", "setting": "[42]", "value": 0.047, "unit": "µg/mL"}, {"measurement": "neutralization IC80", "setting": "[43]", "value": 0.039, "unit": "µg/mL"}]}
